Common to all, as to assay: cell-based or functional assay
One assay deals with hGLP-1R (Homo sapiens, UniProt P43220).
The target in assay [1] is human glucagon receptor (human) (UniProt P47871).
Assay [2] addresses T1, human GIP receptor (human) (UniProt P48546).
T1 sequence (looked up): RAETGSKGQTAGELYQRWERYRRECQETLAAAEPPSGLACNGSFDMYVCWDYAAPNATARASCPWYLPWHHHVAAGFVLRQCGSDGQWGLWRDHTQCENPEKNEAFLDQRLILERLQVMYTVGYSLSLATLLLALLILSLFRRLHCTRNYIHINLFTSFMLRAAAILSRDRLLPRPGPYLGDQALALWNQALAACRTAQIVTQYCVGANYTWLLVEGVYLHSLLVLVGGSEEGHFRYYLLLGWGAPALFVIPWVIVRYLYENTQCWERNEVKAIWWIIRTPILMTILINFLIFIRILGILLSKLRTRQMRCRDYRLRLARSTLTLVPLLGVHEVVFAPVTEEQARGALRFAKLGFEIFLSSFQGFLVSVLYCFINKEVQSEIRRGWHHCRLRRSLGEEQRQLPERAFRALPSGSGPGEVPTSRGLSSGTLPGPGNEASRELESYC

For assay [3], the target named is human GLP-1R (SNAP-GLP-1R expressed in HEK293 cells) (human) (UniProt P43220).
Chain of human GLP-1R (SNAP-GLP-1R expressed in HEK293 cells) (human) (P43220 24-463): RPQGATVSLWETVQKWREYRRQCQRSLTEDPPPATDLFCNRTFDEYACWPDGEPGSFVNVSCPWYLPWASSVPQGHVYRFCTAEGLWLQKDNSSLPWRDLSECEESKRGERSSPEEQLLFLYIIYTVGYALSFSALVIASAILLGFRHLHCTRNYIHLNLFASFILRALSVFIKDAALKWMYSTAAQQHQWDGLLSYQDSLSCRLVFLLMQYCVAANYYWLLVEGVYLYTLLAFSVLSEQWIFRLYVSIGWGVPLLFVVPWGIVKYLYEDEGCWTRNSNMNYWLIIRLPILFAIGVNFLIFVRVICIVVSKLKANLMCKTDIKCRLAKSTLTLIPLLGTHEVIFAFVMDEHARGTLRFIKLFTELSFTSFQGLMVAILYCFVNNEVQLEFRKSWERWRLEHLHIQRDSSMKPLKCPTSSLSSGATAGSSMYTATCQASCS

Substitutions are numbered along the chain they refer to. Starred links: 1 amine or outer side, 2 acyl side, 3 side chain; linkers in the order of their positions; H or OH if unused. Non-standard residues stand in square brackets, D forms with d. Groups on a side chain read outwards from the residue. No end group written: not given here. *: point of attachment. C18 diacid = O=C(O)CCCCCCCCCCCCCCCCC(=O)*; γGlu = O=C(O)[C@H](CCC(=O)[*:2])N[*:1]; αMeL = CC(C)C[C@](C)(N)C(=O)O; Dap = NC[C@H](N)C(=O)O; AEEA = NCCOCCOCC(=O)O; Aib = CC(C)(N)C(=O)O

Chain of hGLP-1R (P43220 24-463): as above
Chain of human glucagon receptor (human) (P47871 26-477): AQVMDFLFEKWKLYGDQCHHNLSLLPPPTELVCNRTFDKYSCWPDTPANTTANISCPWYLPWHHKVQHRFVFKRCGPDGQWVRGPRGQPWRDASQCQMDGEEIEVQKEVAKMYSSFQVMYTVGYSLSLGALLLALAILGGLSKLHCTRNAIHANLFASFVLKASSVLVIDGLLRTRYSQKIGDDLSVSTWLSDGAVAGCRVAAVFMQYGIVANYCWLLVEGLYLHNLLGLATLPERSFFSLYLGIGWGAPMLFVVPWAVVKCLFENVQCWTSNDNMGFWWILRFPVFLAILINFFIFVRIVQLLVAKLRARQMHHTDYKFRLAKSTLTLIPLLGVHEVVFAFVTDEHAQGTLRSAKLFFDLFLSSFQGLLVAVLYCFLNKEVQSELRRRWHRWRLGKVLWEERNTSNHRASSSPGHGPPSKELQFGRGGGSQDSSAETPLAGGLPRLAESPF

B1: Example 151 (peptide)
chain: YXQGTFTSDFSQXLDKKAQXAFIEYLLEXGPSSGAPPPSGS
modifications: Lys acylated with AEEA-γGlu-C18 diacid; non-natural residues; C-amide; synthetic construct; SITE 2: note = 2-Aminoisobutyric Acid; SITE 13: note = alpha-methyl-leucine; SITE 17: note = Lysine is chemically modified through conjugation of the epsilon-amino group of the Lysine side chain with (2-[2-(2-Amino-ethoxy)-ethoxy]-acetyl)-(gamma-Glu)-CO-(CH2) 16-CO2H; SITE 20: n
In the assay with hGLP-1R, B1 returned a Relative cAMP EC50, nM (0.1% casein) of 1.6 nM and a cAMP Rel EC50, nM (1% HSA) of 384 nM. In assay [1], the Relative cAMP EC50, nM (0.1% casein) is 3.5 nM and the cAMP Rel EC50, nM (1% HSA) was determined as 1420 nM. In assay [2], this molecule registered a Relative cAMP EC50, nM (0.1% casein) of 0.0784 nM and a cAMP Rel EC50, nM (1% HSA) of 14.9 nM. Further, in assay [3], the GLP1R Internalization EC50 stood at 77.8 nM and the Internalization % TOP worked out at 55%.

B2: Example 167 (peptide)
chain: B1 chain with Q12X, A35E, S41T
modifications: non-natural residues (Aib, Orn, αMeL); lipidated K; C-terminal amide; synthetic construct; SITE 2: note = 2-Aminoisobutyric Acid; SITE 12: note = L-ornithine; SITE 13: note = alpha-methyl-leucine; SITE 17: note = Lysine is chemically modified through conjugation of the epsilon-amino group of the Lysine side chain with (2-[2-(2-Amino-ethoxy)-ethoxy]-acetyl)2-(gamma-Glu)
In the assay with hGLP-1R, B2 showed a Relative cAMP EC50, nM (0.1% casein) of 6.19 nM and a cAMP Rel EC50, nM (1% HSA) of 1300 nM. In assay [1], this molecule registered a Relative cAMP EC50, nM (0.1% casein) of 5.05 nM and a cAMP Rel EC50, nM (1% HSA) of 938 nM. In assay [2], this molecule displayed a Relative cAMP EC50, nM (0.1% casein) of 0.101 nM and a cAMP Rel EC50, nM (1% HSA) of 24.7 nM. Besides, in assay [3], the GLP1R Internalization EC50 was found to be 75.9 nM and the Internalization % TOP was 44.7%.

B3: Example 157 (peptide)
chain: B1 chain with Q12X, X29A, A35E, S41Q
modifications: Aib, Orn, alpha-methyl-Leu, D-Ala, lipidated Lys, amide; synthetic construct; SITE 2: note = 2-Aminoisobutyric Acid; SITE 12: note = L-ornithine; SITE 13: note = alpha-methyl-leucine; SITE 17: note = Lysine is chemically modified through conjugation of the epsilon-amino group of the Lysine side chain with (2-[2-(2-Amino-ethoxy)-ethoxy]-acetyl)2-(gamma-Glu)
In the case of B3, the values for the Relative cAMP EC50, nM (0.1% casein) (in the assay with hGLP-1R; in assay [1]; in assay [2]) were 3.04 nM, 4.16 nM and 0.183 nM, respectively. Further, the cAMP Rel EC50, nM (1% HSA) in the assay with hGLP-1R stood at 496 nM; in assay [1], 838 nM; in assay [2], 22.2 nM. This molecule had a GLP1R Internalization EC50 in assay [3] of 60.3 nM. Besides, the Internalization % TOP in assay [3] was 53.3%.

B4: Example 166 (peptide)
chain: B1 chain with Q12X, A35E
modifications: Aib, Orn, αMeL, acylated K, C-terminal amide; synthetic construct; SITE 2: note = 2-Aminoisobutyric Acid; SITE 12: note = L-ornithine; SITE 13: note = alpha-methyl-leucine; SITE 17: note = Lysine is chemically modified through conjugation of the epsilon-amino group of the Lysine side chain with (2-[2-(2-Amino-ethoxy)-ethoxy]-acetyl)2-(gamma-Glu)
In the assay with hGLP-1R, B4 returned a Relative cAMP EC50, nM (0.1% casein) of 6.96 nM and a cAMP Rel EC50, nM (1% HSA) of 1500 nM. In assay [1], the Relative cAMP EC50, nM (0.1% casein) came out at 3.82 nM and the cAMP Rel EC50, nM (1% HSA) was 724 nM. Moreover, in assay [2], the Relative cAMP EC50, nM (0.1% casein) was 0.118 nM and the cAMP Rel EC50, nM (1% HSA) was determined as 21 nM. For the same molecule, in assay [3], the GLP1R Internalization EC50 is 74.6 nM and the Internalization % TOP came to 44.2%.

B5: Example 162 (peptide)
chain: B1 chain with Q12X, X29G, P31H, S39G
modifications: Aib, Orn, αMeL; acylated Lys; C-terminal amide; synthetic construct; SITE 2: note = 2-Aminoisobutyric Acid; SITE 12: note = L-ornithine; SITE 13: note = alpha-methyl-leucine; SITE 17: note = Lysine is chemically modified through conjugation of the epsilon-amino group of the Lysine side chain with (2-[2-(2-Amino-ethoxy)-ethoxy]-acetyl)-(gamma-Glu)
In the case of B5, the Relative cAMP EC50, nM (0.1% casein) was found to be 4.72 nM with hGLP-1R, 4.72 nM in assay [1] and 0.222 nM in assay [2]. In addition, the cAMP Rel EC50, nM (1% HSA) with hGLP-1R came to 786 nM; in assay [1], 558 nM; in assay [2], 37.5 nM. Moreover, in assay [3], the GLP1R Internalization EC50 is 48.8 nM. This molecule registered an Internalization % TOP in assay [3] of 44.8%.

B6: Example 137 (peptide)
chain: B1 chain with Q12X, Y25W, X29G, P37X, S41E
modifications: synthetic construct; SITE 2: note = 2-Aminoisobutyric Acid; SITE 12: note = L-ornithine; SITE 13: note = alpha-methyl-leucine; SITE 17: note = Lysine is chemically modified through conjugation of the epsilon-amino group of the Lysine side chain with (2-[2-(2-Amino-ethoxy)-ethoxy]-acetyl)-(gamma-Glu)
Turning to B6, the results for the Relative cAMP EC50 (with hGLP-1R; in assay [1]; in assay [2]) were 3.18 nM, 4.43 nM and 0.269 nM, respectively. Further, the cAMP Rel EC50, nM (in the presence of 1% HSA) with hGLP-1R worked out at 447 nM; in assay [1] it was 905 nM; in assay [2], 23.7 nM. The molecule also came in with a GLP1R Internalization EC50 in assay [3] of 60.2 nM. The molecule further displayed an Internalization % TOP in assay [3] of 47.7%.

B7: Example 154 (peptide)
chain: B1 chain with F10X, Q12X, E28A, X29G, A35E
modifications: Aib, 4Pal, Orn, αMeL; lipidated Lys; C-terminal amide; synthetic construct; SITE 2: note = 2-Aminoisobutyric Acid; SITE 10: note = 3-(4-Pyridyl)-L-alanine; SITE 12: note = L-ornithine; SITE 13: note = alpha-methyl-leucine; SITE 17: note = Lysine is chemically modified through conjugation of the epsilon-amino group of the Lysine side chain with (2-[2-(2-
B7: in the assay with hGLP-1R, the Relative cAMP EC50, nM (0.1% casein) is 4.94 nM and the cAMP Rel EC50, nM (1% HSA) was found to be 569 nM. In assay [1], the Relative cAMP EC50, nM (0.1% casein) turned out to be 8.72 nM and the cAMP Rel EC50, nM (1% HSA) was determined as 1040 nM. In assay [2], the Relative cAMP EC50, nM (0.1% casein) came out at 0.227 nM and the cAMP Rel EC50, nM (1% HSA) was determined as 29.7 nM. Moreover, in assay [3], the GLP1R Internalization EC50 came to 47.7 nM and the Internalization % TOP is 65.9%.

B8: Example 164 (peptide)
chain: B1 chain with Q12X, X29G, P31H, A35E, S39G
modifications: non-natural residues; lipidated Lys AEEA-γGlu-C18 diacid; C-term amide; synthetic construct; SITE 2: note = 2-Aminoisobutyric Acid; SITE 12: note = L-ornithine; SITE 13: note = alpha-methyl-leucine; SITE 17: note = Lysine is chemically modified through conjugation of the epsilon-amino group of the Lysine side chain with (2-[2-(2-Amino-ethoxy)-ethoxy]-acetyl)-(gamma-Glu)
For B8, in the assay with hGLP-1R, the Relative cAMP EC50, nM (0.1% casein) came out at 5.02 nM and the cAMP Rel EC50, nM (1% HSA) turned out to be 962 nM. In assay [1], this molecule returned a Relative cAMP EC50, nM (0.1% casein) of 2.92 nM and a cAMP Rel EC50, nM (1% HSA) of 411 nM. In assay [2], this molecule returned a Relative cAMP EC50, nM (0.1% casein) of 0.302 nM and a cAMP Rel EC50, nM (1% HSA) of 59 nM. In assay [3], this molecule had a GLP1R Internalization EC50 of 45.9 nM and an Internalization % TOP of 46.5%.

Turning to Y[Aib]QGTFTSDFS[Dap][αMeL]LDKK([AEEA-γGlu-C18 diacid])AQ[Aib]AFIEYLLE[Aib]GPSSGAPPPSGS-NH2 [Example 134], in the assay with hGLP-1R, the Relative cAMP EC50 came out at 3.36 nM and the cAMP Rel EC50, nM (in the presence of 1% HSA) turned out to be 549 nM. For the same molecule, in assay [1], the Relative cAMP EC50 turned out to be 7.28 nM and the cAMP Rel EC50, nM (in the presence of 1% HSA) amounted to 1200 nM. For the same molecule, in assay [2], the Relative cAMP EC50 was determined as 0.152 nM and the cAMP Rel EC50, nM (in the presence of 1% HSA) worked out at 38.3 nM. Besides, in assay [3], the GLP1R Internalization EC50 turned out to be 67.9 nM and the Internalization % TOP was 22.3%.

(Values after patent US20240270821A1, “GIP/GLP1/GCG TRI-RECEPTOR AGONISTS AND USES THEREOF” (priority 2023, published 2024).)
